Data on 6 molecules can be found in patent US20260001928A1 (CORTERIA PHARMACEUTICALS, priority 2022, published 2026).

*1 amine or outer side, *2 acyl side, *3 side chain or, on linkers, in order; H or OH if unused. Where no end group is shown, it is not given here. Side-chain parts run from the residue outwards. [ ]: non-standard residue; d: D form. The star is where a group is joined. C18 diacid = O=C(O)CCCCCCCCCCCCCCCCC(=O)*; γGlu = O=C(O)[C@H](CCC(=O)[*:2])N[*:1]; NMeI = CC[C@H](C)[C@H](NC)C(=O)O; Api = NC1(C(=O)O)CCNCC1; Abu = CC[C@H](N)C(=O)O; Dap = NC[C@H](N)C(=O)O; AEEA = NCCOCCOCC(=O)O

The target of one experiment is T1, CRF1R receptor (UniProt P34998 24-415, limits assumed).
T1 sequence (looked up): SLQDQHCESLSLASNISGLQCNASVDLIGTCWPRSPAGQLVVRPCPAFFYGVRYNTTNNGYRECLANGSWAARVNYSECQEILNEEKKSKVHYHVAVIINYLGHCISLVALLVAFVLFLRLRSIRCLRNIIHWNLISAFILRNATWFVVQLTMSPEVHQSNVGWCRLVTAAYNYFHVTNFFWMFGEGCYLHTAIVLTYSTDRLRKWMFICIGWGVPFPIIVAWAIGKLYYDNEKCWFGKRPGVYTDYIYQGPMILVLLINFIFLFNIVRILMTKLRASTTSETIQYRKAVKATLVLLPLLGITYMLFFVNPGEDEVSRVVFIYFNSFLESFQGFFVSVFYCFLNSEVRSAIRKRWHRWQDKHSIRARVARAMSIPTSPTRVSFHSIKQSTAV
As to the kind of experiment: cell-based or functional assay.

For experiment [1], the target named is human corticotropin-releasing factor 2a (CRF2a receptor) (human), Q13324. As to the kind of experiment: cell-based or functional assay.
Sequence of human corticotropin-releasing factor 2a (CRF2a receptor) (human), Q13324 (Q13324 20-411): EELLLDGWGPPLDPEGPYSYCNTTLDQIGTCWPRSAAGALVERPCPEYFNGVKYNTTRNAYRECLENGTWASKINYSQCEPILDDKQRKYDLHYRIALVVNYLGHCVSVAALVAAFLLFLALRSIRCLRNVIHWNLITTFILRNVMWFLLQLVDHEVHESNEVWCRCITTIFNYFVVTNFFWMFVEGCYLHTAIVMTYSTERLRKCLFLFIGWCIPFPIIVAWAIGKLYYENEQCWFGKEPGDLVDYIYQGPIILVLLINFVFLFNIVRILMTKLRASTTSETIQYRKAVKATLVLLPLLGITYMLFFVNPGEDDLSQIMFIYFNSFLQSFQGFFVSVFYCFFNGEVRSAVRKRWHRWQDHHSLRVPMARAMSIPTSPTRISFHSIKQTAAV

B1: SEQ ID NO 114 (peptide)
peptide: [NMeI]VLSLD[dV]PIKLK([AEEA-AEEA-γGlu-C18 diacid])KILLEQEKQKKQREQAETN[Abu]QILAQV-NH2
modifications: N-terminus assumed
SMILES: CC[C@H](NC(=O)[C@H](CC(N)=O)NC(=O)[C@@H](NC(=O)[C@H](CCC(=O)O)NC(=O)[C@H](C)NC(=O)[C@H](CCC(N)=O)NC(=O)[C@H](CCC(=O)O)NC(=O)[C@H](CCCNC(=N)N)NC(=O)[C@H](CCC(N)=O)NC(=O)[C@H](CCCCN)NC(=O)[C@H](CCCCN)NC(=O)[C@H](CCC(N)=O)NC(=O)[C@H](CCCCN)NC(=O)[C@H](CCC(=O)O)NC(=O)[C@H](CCC(N)=O)NC(=O)[C@H](CCC(=O)O)NC(=O)[C@H](CC(C)C)NC(=O)[C@H](CC(C)C)NC(=O)[C@@H](NC(=O)[C@H](CCCCN)NC(=O)[C@H](CCCCNC(=O)COCCOCCNC(=O)COCCOCCNC(=O)CC[C@H](NC(=O)CCCCCCCCCCCCCCCCC(=O)O)C(=O)O)NC(=O)[C@H](CC(C)C)NC(=O)[C@H](CCCCN)NC(=O)[C@@H](NC(=O)[C@@H]1CCCN1C(=O)[C@H](NC(=O)[C@H](CC(=O)O)NC(=O)[C@H](CC(C)C)NC(=O)[C@H](CO)NC(=O)[C@H](CC(C)C)NC(=O)[C@@H](NC(=O)[C@@H](NC)[C@@H](C)CC)C(C)C)C(C)C)[C@@H](C)CC)[C@@H](C)CC)[C@@H](C)O)C(=O)N[C@@H](CCC(N)=O)C(=O)N[C@H](C(=O)N[C@@H](CC(C)C)C(=O)N[C@@H](C)C(=O)N[C@@H](CCC(N)=O)C(=O)N[C@H](C(N)=O)C(C)C)[C@@H](C)CC
Turning to B1, the “Emax (% I)” value with CRF1R receptor was 6%. This molecule came in with an EC50 [nM] (cAMP) in experiment [1] of 0.18 nM.

B2: SEQ ID NO 138 (peptide)
peptide: [NMeI]VLSLD[dV]PIKLK([γGlu-C18 diacid])KILLEQEKQKKQREQAETNAQILAQV-NH2
modifications: N-terminus assumed
SMILES: CC[C@H](C)[C@H](NC)C(=O)N[C@H](C(=O)N[C@@H](CC(C)C)C(=O)N[C@@H](CO)C(=O)N[C@@H](CC(C)C)C(=O)N[C@@H](CC(=O)O)C(=O)N[C@@H](C(=O)N1CCC[C@H]1C(=O)N[C@H](C(=O)N[C@@H](CCCCN)C(=O)N[C@@H](CC(C)C)C(=O)N[C@@H](CCCCNC(=O)CC[C@H](NC(=O)CCCCCCCCCCCCCCCCC(=O)O)C(=O)O)C(=O)N[C@@H](CCCCN)C(=O)N[C@H](C(=O)N[C@@H](CC(C)C)C(=O)N[C@@H](CC(C)C)C(=O)N[C@@H](CCC(=O)O)C(=O)N[C@@H](CCC(N)=O)C(=O)N[C@@H](CCC(=O)O)C(=O)N[C@@H](CCCCN)C(=O)N[C@@H](CCC(N)=O)C(=O)N[C@@H](CCCCN)C(=O)N[C@@H](CCCCN)C(=O)N[C@@H](CCC(N)=O)C(=O)N[C@@H](CCCNC(=N)N)C(=O)N[C@@H](CCC(=O)O)C(=O)N[C@@H](CCC(N)=O)C(=O)N[C@@H](C)C(=O)N[C@@H](CCC(=O)O)C(=O)N[C@H](C(=O)N[C@@H](CC(N)=O)C(=O)N[C@@H](C)C(=O)N[C@@H](CCC(N)=O)C(=O)N[C@H](C(=O)N[C@@H](CC(C)C)C(=O)N[C@@H](C)C(=O)N[C@@H](CCC(N)=O)C(=O)N[C@H](C(N)=O)C(C)C)[C@@H](C)CC)[C@@H](C)O)[C@@H](C)CC)[C@@H](C)CC)C(C)C)C(C)C
On to B2, for which the “Emax (% I)” value with CRF1R receptor worked out at 10%. This molecule returned an EC50 [nM] (cAMP) in experiment [1] of 0.05 nM.

B3: SEQ ID NO 117 (peptide)
peptide: [NMeI]VLSLD[dV]PIKLK([AEEA-AEEA-γGlu-C18 diacid])KILLEQEKQKKQREQAETN[Api]QILAQV-NH2
modifications: N-terminus assumed
SMILES: CC[C@H](C)[C@H](NC)C(=O)N[C@H](C(=O)N[C@@H](CC(C)C)C(=O)N[C@@H](CO)C(=O)N[C@@H](CC(C)C)C(=O)N[C@@H](CC(=O)O)C(=O)N[C@@H](C(=O)N1CCC[C@H]1C(=O)N[C@H](C(=O)N[C@@H](CCCCN)C(=O)N[C@@H](CC(C)C)C(=O)N[C@@H](CCCCNC(=O)COCCOCCNC(=O)COCCOCCNC(=O)CC[C@H](NC(=O)CCCCCCCCCCCCCCCCC(=O)O)C(=O)O)C(=O)N[C@@H](CCCCN)C(=O)N[C@H](C(=O)N[C@@H](CC(C)C)C(=O)N[C@@H](CC(C)C)C(=O)N[C@@H](CCC(=O)O)C(=O)N[C@@H](CCC(N)=O)C(=O)N[C@@H](CCC(=O)O)C(=O)N[C@@H](CCCCN)C(=O)N[C@@H](CCC(N)=O)C(=O)N[C@@H](CCCCN)C(=O)N[C@@H](CCCCN)C(=O)N[C@@H](CCC(N)=O)C(=O)N[C@@H](CCCNC(=N)N)C(=O)N[C@@H](CCC(=O)O)C(=O)N[C@@H](CCC(N)=O)C(=O)N[C@@H](C)C(=O)N[C@@H](CCC(=O)O)C(=O)N[C@H](C(=O)N[C@@H](CC(N)=O)C(=O)NC1(C(=O)N[C@@H](CCC(N)=O)C(=O)N[C@H](C(=O)N[C@@H](CC(C)C)C(=O)N[C@@H](C)C(=O)N[C@@H](CCC(N)=O)C(=O)N[C@H](C(N)=O)C(C)C)[C@@H](C)CC)CCNCC1)[C@@H](C)O)[C@@H](C)CC)[C@@H](C)CC)C(C)C)C(C)C
Consider B3, for which the “Emax (% I)” value in the experiment with CRF1R receptor came to 3%. This molecule also displayed an EC50 [nM] (cAMP) in experiment [1] of 0.63 nM.

B4: SEQ ID NO 140 (peptide)
peptide: [NMeI]VLSLD[dV]PIKLK([γGlu-C18 diacid])KILLEQEKQKKQREQAETN[Dap]QILAQV-NH2
modifications: N-terminus assumed
SMILES: CC[C@H](C)[C@H](NC)C(=O)N[C@H](C(=O)N[C@@H](CC(C)C)C(=O)N[C@@H](CO)C(=O)N[C@@H](CC(C)C)C(=O)N[C@@H](CC(=O)O)C(=O)N[C@@H](C(=O)N1CCC[C@H]1C(=O)N[C@H](C(=O)N[C@@H](CCCCN)C(=O)N[C@@H](CC(C)C)C(=O)N[C@@H](CCCCNC(=O)CC[C@H](NC(=O)CCCCCCCCCCCCCCCCC(=O)O)C(=O)O)C(=O)N[C@@H](CCCCN)C(=O)N[C@H](C(=O)N[C@@H](CC(C)C)C(=O)N[C@@H](CC(C)C)C(=O)N[C@@H](CCC(=O)O)C(=O)N[C@@H](CCC(N)=O)C(=O)N[C@@H](CCC(=O)O)C(=O)N[C@@H](CCCCN)C(=O)N[C@@H](CCC(N)=O)C(=O)N[C@@H](CCCCN)C(=O)N[C@@H](CCCCN)C(=O)N[C@@H](CCC(N)=O)C(=O)N[C@@H](CCCNC(=N)N)C(=O)N[C@@H](CCC(=O)O)C(=O)N[C@@H](CCC(N)=O)C(=O)N[C@@H](C)C(=O)N[C@@H](CCC(=O)O)C(=O)N[C@H](C(=O)N[C@@H](CC(N)=O)C(=O)N[C@@H](CN)C(=O)N[C@@H](CCC(N)=O)C(=O)N[C@H](C(=O)N[C@@H](CC(C)C)C(=O)N[C@@H](C)C(=O)N[C@@H](CCC(N)=O)C(=O)N[C@H](C(N)=O)C(C)C)[C@@H](C)CC)[C@@H](C)O)[C@@H](C)CC)[C@@H](C)CC)C(C)C)C(C)C
Consider B4, for which the “Emax (% I)” value with CRF1R receptor stood at 14%. This molecule gave an EC50 [nM] (cAMP) in experiment [1] of 0.17 nM.

B5: SEQ ID NO 141 (peptide)
peptide: [NMeI]VLSLD[dV]PIKLK([γGlu-C18 diacid])KILLEQEKQKKQREQAETN[Api]QILAQV-NH2
modifications: N-terminus assumed
SMILES: CC[C@H](C)[C@H](NC)C(=O)N[C@H](C(=O)N[C@@H](CC(C)C)C(=O)N[C@@H](CO)C(=O)N[C@@H](CC(C)C)C(=O)N[C@@H](CC(=O)O)C(=O)N[C@@H](C(=O)N1CCC[C@H]1C(=O)N[C@H](C(=O)N[C@@H](CCCCN)C(=O)N[C@@H](CC(C)C)C(=O)N[C@@H](CCCCNC(=O)CC[C@H](NC(=O)CCCCCCCCCCCCCCCCC(=O)O)C(=O)O)C(=O)N[C@@H](CCCCN)C(=O)N[C@H](C(=O)N[C@@H](CC(C)C)C(=O)N[C@@H](CC(C)C)C(=O)N[C@@H](CCC(=O)O)C(=O)N[C@@H](CCC(N)=O)C(=O)N[C@@H](CCC(=O)O)C(=O)N[C@@H](CCCCN)C(=O)N[C@@H](CCC(N)=O)C(=O)N[C@@H](CCCCN)C(=O)N[C@@H](CCCCN)C(=O)N[C@@H](CCC(N)=O)C(=O)N[C@@H](CCCNC(=N)N)C(=O)N[C@@H](CCC(=O)O)C(=O)N[C@@H](CCC(N)=O)C(=O)N[C@@H](C)C(=O)N[C@@H](CCC(=O)O)C(=O)N[C@H](C(=O)N[C@@H](CC(N)=O)C(=O)NC1(C(=O)N[C@@H](CCC(N)=O)C(=O)N[C@H](C(=O)N[C@@H](CC(C)C)C(=O)N[C@@H](C)C(=O)N[C@@H](CCC(N)=O)C(=O)N[C@H](C(N)=O)C(C)C)[C@@H](C)CC)CCNCC1)[C@@H](C)O)[C@@H](C)CC)[C@@H](C)CC)C(C)C)C(C)C
For the molecule B5, the “Emax (% I)” value in the experiment with CRF1R receptor came out at 32%. The EC50 [nM] (cAMP) in experiment [1] turned out to be 0.16 nM.

B6: SEQ ID NO 139 (peptide)
peptide: [NMeI]VLSLD[dV]PIKLK([γGlu-C18 diacid])KILLEQEKQKKQREQAETN[Abu]QILAQV-NH2
modifications: N-terminus assumed
SMILES: CC[C@H](NC(=O)[C@H](CC(N)=O)NC(=O)[C@@H](NC(=O)[C@H](CCC(=O)O)NC(=O)[C@H](C)NC(=O)[C@H](CCC(N)=O)NC(=O)[C@H](CCC(=O)O)NC(=O)[C@H](CCCNC(=N)N)NC(=O)[C@H](CCC(N)=O)NC(=O)[C@H](CCCCN)NC(=O)[C@H](CCCCN)NC(=O)[C@H](CCC(N)=O)NC(=O)[C@H](CCCCN)NC(=O)[C@H](CCC(=O)O)NC(=O)[C@H](CCC(N)=O)NC(=O)[C@H](CCC(=O)O)NC(=O)[C@H](CC(C)C)NC(=O)[C@H](CC(C)C)NC(=O)[C@@H](NC(=O)[C@H](CCCCN)NC(=O)[C@H](CCCCNC(=O)CC[C@H](NC(=O)CCCCCCCCCCCCCCCCC(=O)O)C(=O)O)NC(=O)[C@H](CC(C)C)NC(=O)[C@H](CCCCN)NC(=O)[C@@H](NC(=O)[C@@H]1CCCN1C(=O)[C@H](NC(=O)[C@H](CC(=O)O)NC(=O)[C@H](CC(C)C)NC(=O)[C@H](CO)NC(=O)[C@H](CC(C)C)NC(=O)[C@@H](NC(=O)[C@@H](NC)[C@@H](C)CC)C(C)C)C(C)C)[C@@H](C)CC)[C@@H](C)CC)[C@@H](C)O)C(=O)N[C@@H](CCC(N)=O)C(=O)N[C@H](C(=O)N[C@@H](CC(C)C)C(=O)N[C@@H](C)C(=O)N[C@@H](CCC(N)=O)C(=O)N[C@H](C(N)=O)C(C)C)[C@@H](C)CC
As for B6, the “Emax (% I)” value with CRF1R receptor was 13%. Further, the EC50 [nM] (cAMP) in experiment [1] amounted to 0.05 nM.
